Measurements from paper PMC4150783.

Columns and labels:
Pot1-DBD [1] = target: T1, Pot1-DBD (Schizosaccharomyces pombe, UniProt O13988 1-339); experiment: NMR
T1 sequence: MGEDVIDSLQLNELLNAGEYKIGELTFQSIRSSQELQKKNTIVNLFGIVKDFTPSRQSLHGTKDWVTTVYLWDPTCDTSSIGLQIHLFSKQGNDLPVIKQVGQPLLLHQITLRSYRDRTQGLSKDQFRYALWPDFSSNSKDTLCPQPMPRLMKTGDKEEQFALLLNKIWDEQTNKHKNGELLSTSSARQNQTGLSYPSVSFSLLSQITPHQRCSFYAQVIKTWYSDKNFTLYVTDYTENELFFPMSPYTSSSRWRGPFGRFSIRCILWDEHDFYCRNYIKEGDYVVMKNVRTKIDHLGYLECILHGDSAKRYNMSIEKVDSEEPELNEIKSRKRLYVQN

Pot1-DBD_Y224A = target: T2, Pot1-DBD_Y224A (Schizosaccharomyces pombe, UniProt O13988 1-339, Y224A); experiment: SEC-MALS
T2 sequence: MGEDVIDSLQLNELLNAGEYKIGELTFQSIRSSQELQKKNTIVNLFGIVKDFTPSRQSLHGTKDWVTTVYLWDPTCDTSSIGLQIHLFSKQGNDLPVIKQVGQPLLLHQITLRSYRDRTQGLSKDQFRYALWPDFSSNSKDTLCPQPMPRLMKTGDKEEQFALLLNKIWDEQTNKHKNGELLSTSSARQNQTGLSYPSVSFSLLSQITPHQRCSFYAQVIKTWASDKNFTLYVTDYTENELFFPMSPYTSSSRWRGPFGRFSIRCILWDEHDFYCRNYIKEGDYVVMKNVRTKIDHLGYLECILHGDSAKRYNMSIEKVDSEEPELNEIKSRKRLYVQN

Pot1pN = target: T3, Pot1pN (Schizosaccharomyces pombe, UniProt O13988 1-187); experiment: NMR
T3 sequence: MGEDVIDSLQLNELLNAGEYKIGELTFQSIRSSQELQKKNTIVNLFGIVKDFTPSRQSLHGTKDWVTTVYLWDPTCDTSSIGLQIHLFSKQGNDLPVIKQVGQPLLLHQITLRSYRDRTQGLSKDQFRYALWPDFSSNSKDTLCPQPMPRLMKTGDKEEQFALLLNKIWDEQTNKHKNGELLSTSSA

Pot1-DBD [2] = target: T1, Pot1-DBD; experiment: EMSA
Pot1-DBD [3] = target: T1, Pot1-DBD; experiment: SEC-MALS
Pot1-DBD [4] = target: T1, Pot1-DBD; experiment: SEC-MALS; remark: listed apart in the source
Pot1pC = target: T4, Pot1pC (Schizosaccharomyces pombe, UniProt O13988 198-339); experiment: NMR
T4 sequence: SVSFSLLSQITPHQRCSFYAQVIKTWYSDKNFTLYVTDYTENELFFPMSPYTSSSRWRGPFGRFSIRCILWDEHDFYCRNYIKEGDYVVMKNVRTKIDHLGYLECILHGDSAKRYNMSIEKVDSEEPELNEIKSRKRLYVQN

Pot1pC_Y224A = target: T5, Pot1pC_Y224A (Schizosaccharomyces pombe, UniProt O13988 198-339, Y224A); experiment: ITC
T5 sequence: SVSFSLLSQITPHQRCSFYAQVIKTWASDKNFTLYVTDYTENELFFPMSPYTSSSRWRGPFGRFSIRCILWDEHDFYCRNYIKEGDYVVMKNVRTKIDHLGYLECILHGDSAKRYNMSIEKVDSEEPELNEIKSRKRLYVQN

## GGTTACGGTTACGGT (ssDNA) [15mer]
Pot1-DBD [1]
  binding result: binds
Pot1-DBD_Y224A
  binding result: binds

## GGTTAC (ssDNA) [6mer]
Pot1pN
  binding result: binds

## GGTTACGGTTAC (ssDNA) [12mer]
Pot1-DBD [2]
  binding result: binds

## GGTTACGGATAC (ssDNA) [12mer_T9A]
Pot1-DBD [3]
  binding result: binds

## GGTTACGGTTACCGT (ssDNA) [15mer_G13C]
Pot1-DBD [4]
  binding result: binds

## GGTTACGGT (ssDNA) [9mer]
Pot1pC
  binding result: binds
Pot1pC_Y224A
  binding signal: ~10 fold weaker than Pot1pC wild type
